Measurements reported in patent US20190015518A1, “DRUG DELIVERY COMPOSITIONS AND METHODS” (priority 2016, published 2019).

Experiments:
[1] = tested on: 4T1.2-neu (murine breast cancer cells); assay: Anti-proliferative activity (Resazurin Blue, 72 hours); format: cell-based; conditions: mean ± S.E.M., cisplatin basis
Method: MDA-1986 (human head and neck squamous cell carcinoma), 4T1.2-neu (murine breast cancer cells), and A2058 (human melanoma) cells were maintained in Dulbecco's Modified Eagle Medium (DMEM, Corning, Manassas, Va.) with 4.5 g/L glucose, 4.5 g/L L-glutamine, and 10% fetal bovine serum in a humidified incubator at 37° C. and 5% CO2. Cells were seeded into 96-well plates (3,000 cells/well in 90 μL media) and allowed to attach overnight. […] Resazurin Blue (Acros Organics, Geel, Belgium) in PBS was added to each well (5-μM final concentration; 10-μL addition) and incubated at 37° C. for 4 hours. Fluorescence (λex 550 nm, λem 605 nm) was quantified with a SpectraMax Gemini XS plate-reader (Molecular Devices, Sunnyvale, Calif.). The relative growth of cells incubated with each compound concentration was normalized to vehicle-treated controls (100% proliferation). Data from at least three separate experiments performed in duplicate was analyzed using non-linear regression (GraphPad Prism 5.0) to generate IC50 values.

[2] = Plasma Pt quantitation; conditions: s.c. 10 mg/kg, between 24 and 72 hours
Method: (§1) Whole blood was centrifuged (1500×g, 5 min., 4° C., no brake). Top layer (plasma) and middle layer (white blood cells) were transferred to new tubes. Plasma was frozen (−20° C.) until analysis. […] The white blood cell pellet was washed twice with cold PBS and re-suspended in 9 mL of white blood cell buffer (10-mM Tris, pH 7.4, 2.3% NaCl, 2-mM EDTA), and 900 μL of 1.1-M NH4HCO3, 900 μL of 10% SDS, and 75 μL of 2% Proteinase K were added and incubated at 42° C. overnight. Then, 3.3 mL of 5-M NaCl was added, samples shaken vigorously, and centrifuged twice (3200×g, 5 min, 4° C.), each time discarding the pellet. DNA was pelleted with 20 mL of ice-cold 100% ethanol and centrifuged (3200×g, 5 min, 4° C.); the DNA pellet was washed twice with 75% ethanol, re-suspended in water, and quantitated. DNA was digested in 1% HNO3 (800 μL total volume) overnight at 70° C. DNA samples were diluted 1:10 in 1% HNO3 and plasma samples were diluted 1:10,000 in 1% HNO3. Diluted samples were analyzed for Pt content using ICP-MS with a calibration curve from 1-1000 ppt.

[3] = Clinical chemistry of a healthy dog given 1.5 mg/kg on day 1 and 2.0 mg/kg on day 70, sub-mucosa; format: in vivo
Method: (§2) Before each dose, the dog was examined by clinical chemistry, hematology, and urinalysis. Additional examinations of clinical chemistry and hematology were performed on days 7, 14, and 42 after the first dose. Additional tests of urinalysis were performed on days 7 and 14 after the first dose. The potential drug-induced toxicities were monitored for 56 days after the second dose. Specifically, clinical chemistry and urinalysis were performed on days 7, 14, 21, and 56, and hematology was performed on days 7, 14, and 56 after the second dose to evaluate the tolerability and toxicity of the formulation.
Clinical chemistry examinations were performed at pre- and post-dose for both injections. The injections were given via the sub-mucosa in the mouth.

[4] = Microscopic urinalysis of a healthy dog given 1.5 mg/kg on day 1 and 2.0 mg/kg on day 70, sub-mucosa; format: in vivo
Method: as §2
Microscopic urinalyses were performed at pre- and post-dose for both injections. The injections were given via the sub-mucosa in the mouth.

[5] = tested on: white blood cell DNA; assay: Pt-DNA adduct quantitation in white blood cell DNA; format: in vivo, rat; conditions: cisplatin i.v. 10 mg/kg; HA-Lys-Pt s.c. 10 mg/kg cisplatin basis; 10 mg/kg
Method: as §1

HA-cis-[Pt(NH3)2(N^α-Acetyl-L-Lysine)] [75HA-Lys-Pt]
IC50 [1]: 80.1 ± 12.7 µM | plasma Pt plateau concentration [2]: 4-5 μg Pt/mL plasma | ALP elevation ([3]; 2 mg/kg, 7-days post-dose): 0.7 fold | ALT elevation ([3]; 2 mg/kg, 7-days post-dose): 4.6 fold | AST elevation ([3]; 2 mg/kg, 7-days post-dose): 8.7 fold | ALP, higher than the pre-dose level ([3]; 2 mg/kg, 8-weeks post-dose): 0.27 fold | Alanine aminotransferase ([3]; 2 mg/kg, 7 days after): 330 U/L | Albumin ([3]; 2 mg/kg, 7 days after): 2.5 g/dL | Alkaline phosphatase ([3]; 2 mg/kg, 7 days after): 237 U/L | Aspartate aminotransferase ([3]; 2 mg/kg, 7 days after): 309 U/L | Calcium ([3]; 2 mg/kg, 7 days after): 9.3 mg/dL | Cholesterol ([3]; 2 mg/kg, 7 days after): 81 mg/dL | Creatine kinase ([3]; 2 mg/kg, 7 days after): 105 U/L | Creatinine ([3]; 2 mg/kg, 7 days after): 0.25 mg/dL | Gamma glutamyltransferase ([3]; 2 mg/kg, 7 days after): 0 U/L | Globulin ([3]; 2 mg/kg, 7 days after): 2.9 g/dL | Glucose ([3]; 2 mg/kg, 7 days after): 83 mg/dL | Inorganic Phosphorus ([3]; 2 mg/kg, 7 days after): 2.8 mg/dL | Total Bilirubin ([3]; 2 mg/kg, 7 days after): 0.3 mg/dL | Total Protein ([3]; 2 mg/kg, 7 days after): 5.4 g/dL | Triglyceride ([3]; 2 mg/kg, 7 days after): 32 mg/dL | Urea Nitrogen ([3]; 2 mg/kg, 7 days after): 11 mg/dL | Alanine aminotransferase ([3]; 2 mg/kg, 14 days after): 223 U/L | Albumin ([3]; 2 mg/kg, 14 days after): 2.4 g/dL | Alkaline phosphatase ([3]; 2 mg/kg, 14 days after): 249 U/L | Calcium ([3]; 2 mg/kg, 14 days after): 8.6 mg/dL | Cholesterol ([3]; 2 mg/kg, 14 days after): 75 mg/dL | Creatine kinase ([3]; 2 mg/kg, 14 days after): 143 U/L | Creatinine ([3]; 2 mg/kg, 14 days after): 0.3 mg/dL | Gamma glutamyltransferase ([3]; 2 mg/kg, 14 days after): 0 U/L | Glucose ([3]; 2 mg/kg, 14 days after): 76 mg/dL | Inorganic Phosphorus ([3]; 2 mg/kg, 14 days after): 3.4 mg/dL | Total Bilirubin ([3]; 2 mg/kg, 14 days after): 0.1 mg/dL | Total Protein ([3]; 2 mg/kg, 14 days after): 5.5 g/dL | Triglyceride ([3]; 2 mg/kg, 14 days after): 43 mg/dL | Urea Nitrogen ([3]; 2 mg/kg, 14 days after): 14 mg/dL | Alanine aminotransferase ([3]; 2 mg/kg, 21 days after): 198 U/L | Albumin ([3]; 2 mg/kg, 21 days after): 2.7 g/dL | Alkaline phosphatase ([3]; 2 mg/kg, 21 days after): 219 U/L | Aspartate aminotransferase ([3]; 2 mg/kg, 21 days after): 129 U/L | Calcium ([3]; 2 mg/kg, 21 days after): 9.3 mg/dL | Cholesterol ([3]; 2 mg/kg, 21 days after): 70 mg/dL | Creatinine ([3]; 2 mg/kg, 21 days after): 0.33 mg/dL | Gamma glutamyltransferase ([3]; 2 mg/kg, 21 days after): 0 U/L | Glucose ([3]; 2 mg/kg, 21 days after): 64 mg/dL | Inorganic Phosphorus ([3]; 2 mg/kg, 21 days after): 3.9 mg/dL | Total Bilirubin ([3]; 2 mg/kg, 21 days after): 0.2 mg/dL | Total Protein ([3]; 2 mg/kg, 21 days after): 5.8 g/dL | Triglyceride ([3]; 2 mg/kg, 21 days after): 39 mg/dL | Urea Nitrogen ([3]; 2 mg/kg, 21 days after): 14 mg/dL | Alanine aminotransferase ([3]; 2 mg/kg, 56 days after): 220 U/L | Albumin ([3]; 2 mg/kg, 56 days after): 3.0 g/dL | Alkaline phosphatase ([3]; 2 mg/kg, 56 days after): 173 U/L | Aspartate aminotransferase ([3]; 2 mg/kg, 56 days after): 138 U/L | Calcium ([3]; 2 mg/kg, 56 days after): 9.7 mg/dL | Cholesterol ([3]; 2 mg/kg, 56 days after): 86 mg/dL | Creatine kinase ([3]; 2 mg/kg, 56 days after): 117 U/L | Creatinine ([3]; 2 mg/kg, 56 days after): 0.3 mg/dL | Gamma glutamyltransferase ([3]; 2 mg/kg, 56 days after): 0 U/L | Globulin ([3]; 2 mg/kg, 56 days after): 3.3 g/dL | Glucose ([3]; 2 mg/kg, 56 days after): 73 mg/dL | Inorganic Phosphorus ([3]; 2 mg/kg, 56 days after): 2.5 mg/dL | Total Bilirubin ([3]; 2 mg/kg, 56 days after): 0.4 mg/dL | Total Protein ([3]; 2 mg/kg, 56 days after): 6.3 g/dL | Triglyceride ([3]; 2 mg/kg, 56 days after): 42 mg/dL | Urea Nitrogen ([3]; 2 mg/kg, 56 days after): 14 mg/dL | Alanine aminotransferase ([3]; […], 7 days after): 36 U/L | Albumin ([3]; […], 7 days after): 2.4 g/dL | Alkaline phosphatase ([3]; […], 7 days after): 132 U/L | Aspartate aminotransferase ([3]; […], 7 days after): 67 U/L | Calcium ([3]; […], 7 days after): 8.8 mg/dL | Cholesterol ([3]; […], 7 days after): 89 mg/dL | Creatine kinase ([3]; […], 7 days after): 93 U/L | Creatinine ([3]; […], 7 days after): 0.33 mg/dL | Globulin ([3]; […], 7 days after): 2.6 g/dL | Glucose ([3]; […], 7 days after): 70 mg/dL | Inorganic Phosphorus ([3]; […], 7 days after): 3.3 mg/dL | Total Bilirubin ([3]; […], 7 days after): 0.1 mg/dL | Total Protein ([3]; […], 7 days after): 5.0 g/dL | Triglyceride ([3]; […], 7 days after): 34 mg/dL | Urea Nitrogen ([3]; […], 7 days after): 13 mg/dL | Alanine aminotransferase ([3]; […], 14 days): 57 U/L | Albumin ([3]; […], 14 days): 2.4 g/dL | Alkaline phosphatase ([3]; […], 14 days): 116 U/L | Aspartate aminotransferase ([3]; […], 14 days): 89 U/L | Calcium ([3]; […], 14 days): 9.4 mg/dL | Cholesterol ([3]; […], 14 days): 97 mg/dL | Creatine kinase ([3]; […], 14 days): 207 U/L | Creatinine ([3]; […], 14 days): 0.35 mg/dL | Globulin ([3]; […], 14 days): 2.8 g/dL | Glucose ([3]; […], 14 days): 80 mg/dL | Inorganic Phosphorus ([3]; […], 14 days): 5.5 mg/dL | Total Bilirubin ([3]; […], 14 days): 0.0 mg/dL | Total Protein ([3]; […], 14 days): 5.2 g/dL | Triglyceride ([3]; […], 14 days): 38 mg/dL | Urea Nitrogen ([3]; […], 14 days): 19 mg/dL | Alanine aminotransferase ([3]; […], 42 days): 74 U/L | Albumin ([3]; […], 42 days): 3.0 g/dL | Alkaline phosphatase ([3]; […], 42 days): 125 U/L | Aspartate aminotransferase ([3]; […], 42 days): 39 U/L | Creatine kinase ([3]; […], 42 days): 159 U/L | Globulin ([3]; […], 42 days): 2.5 g/dL | Total Bilirubin ([3]; […], 42 days): 0.0 mg/dL | Total Protein ([3]; […], 42 days): 5.5 g/dL | Cast ([4]; 2 mg/kg, 7 days after): Rare triple | Trpl Ph Crystal ([4]; 2 mg/kg, 7 days after): Rare | urine Red Blood Cells ([4]; 2 mg/kg, 14 days after): 16-30 | Bac-U ([4]; 2 mg/kg, 21 days after): Few | Trpl Ph Crystal ([4]; 2 mg/kg, 21 days after): Rare triple | urine Red Blood Cells ([4]; 2 mg/kg, 21 days after): 1-5 | Bac-U ([4]; 2 mg/kg, 56 days after): Rare | Trpl Ph Crystal ([4]; 2 mg/kg, 56 days after): Few | urine Red Blood Cells ([4]; 2 mg/kg, 56 days after): TNTC | Bac-U ([4]; […], 7 days after): Moderate | Trpl Ph Crystal ([4]; […], 7 days after): Few | Bac-U ([4]; […], 14 days): Few | Pt-DNA adduct AUC [5]: 4730 pg Pt×h/μg DNA
